Measured values reported in paper PMC9375095.

Biological target: E-cadherin (human (endogenous in MCF7, HaCaT and FFPE human tissue))
Assay: MolBoolean (proximity assay with antibody-DNA conjugates); FFPE human tissue sections after deparaffinisation and antigen retrieval; secondary proximity probes; percentage of RCPs in each category per frame

Sequence of E-cadherin (human (endogenous in MCF7, HaCaT and FFPE human tissue)) (P12830 23-882): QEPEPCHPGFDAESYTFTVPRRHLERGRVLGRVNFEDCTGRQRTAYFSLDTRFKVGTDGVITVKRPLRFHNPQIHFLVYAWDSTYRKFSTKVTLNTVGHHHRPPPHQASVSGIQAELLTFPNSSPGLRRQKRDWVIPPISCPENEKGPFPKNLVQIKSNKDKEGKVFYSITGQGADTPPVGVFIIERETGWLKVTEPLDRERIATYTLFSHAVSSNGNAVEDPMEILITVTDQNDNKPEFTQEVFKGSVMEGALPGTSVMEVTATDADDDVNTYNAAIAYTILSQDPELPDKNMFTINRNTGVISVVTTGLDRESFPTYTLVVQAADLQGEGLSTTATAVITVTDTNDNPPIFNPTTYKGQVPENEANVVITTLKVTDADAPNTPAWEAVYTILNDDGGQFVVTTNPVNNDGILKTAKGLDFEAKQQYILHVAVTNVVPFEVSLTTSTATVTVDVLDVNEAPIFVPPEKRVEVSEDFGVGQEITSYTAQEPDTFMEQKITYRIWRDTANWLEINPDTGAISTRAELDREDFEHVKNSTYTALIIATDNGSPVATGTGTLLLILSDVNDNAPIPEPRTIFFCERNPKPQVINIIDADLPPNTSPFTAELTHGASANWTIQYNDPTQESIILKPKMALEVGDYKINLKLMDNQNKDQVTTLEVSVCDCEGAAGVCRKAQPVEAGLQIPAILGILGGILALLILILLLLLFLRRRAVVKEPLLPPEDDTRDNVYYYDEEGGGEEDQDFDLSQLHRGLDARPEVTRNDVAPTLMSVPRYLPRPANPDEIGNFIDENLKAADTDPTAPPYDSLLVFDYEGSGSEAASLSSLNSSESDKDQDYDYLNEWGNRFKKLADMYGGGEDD

β-catenin (from UniProt P35222 1-781) (natural protein)
percent of the detected signal per image from complexes: 50%
